Data on 7 molecules can be found in patent US12545899B2, “Luciferase enzymes for use with thermostable luciferins in bioluminescent assays” (Promega Corporation, priority 2018, dated 2026).

This test in a line: Luminescence of ATG-3707 variants (second round epPCR) with CS0333. The class given is biochemical. The settings on record: for Luminescence (RLU) BrightGlo / Normalized Luminescence BrightGlo: BrightGlo buffer; for Luminescence (RLU) BrightGlo / Luminescence (RLU) CellTiterGlo / Luminescence (RLU) Detection Reagent: 25° C., 3 min; for Normalized Luminescence BrightGlo / Normalized Luminescence CellTiterGlo / Normalized Luminescence Detection Reagent: normalized to ATG-3707; for Luminescence (RLU) CellTiterGlo / Normalized Luminescence CellTiterGlo: CellTiterGlo buffer; for Luminescence (RLU) Detection Reagent / Normalized Luminescence Detection Reagent: Detection Reagent buffer. On the procedure: Reagent compositions included CS0333 diluted from 20 mM to 2 mM in reaction buffer with 2 mM ATP. […] Reactions were incubated at 25° C. for 3 min, and luminescence was read and then normalized to ATG-3707 activity tested in parallel.
Background: In ATP-based viability assays light output follows the ATP content of the culture.

B1: C2158H1: SEQ ID NO: 44; H244W+T344A+I396K+S193A+N228D+L305F+S306P+I109V+I230F (protein)
chain: MADKNILYGPEPFYPLEDGTAGEQMFDALSRYAAIPGCIALTNAHTKENVLYEEFLKLSCRLAESFKKYGLKQNDTIAVCSENSLQFFLPVIASLYLGIIVAPVNDKYVERELIHSLGIVKPRIVFCSKNTFQKVLNVKSKLKSIETIIILDLNEDLGGYQCLNNFISQNSDSNLDVKKFKPYSFNRDDQVAAIMFSSGTTGLPKGVMLTHKNIVARFSIAKDPTFGDAFNPTSAILTVIPFHWGFGMMTTLGYFTCGFRVVLMHTFEEKLFLQSLQDYKVESTLLVPTLMAFLAKSALVEKYDFPHLKEIASGGAPLSKEIGEMVKKRFKLNFVRQGYGLTEATSAVLITPKGDAKPGSTGKIVPLHAVKVVDPTTGKILGPNEPGELYFKGPMKMKGYYNNEEATKAIIDNDGWLRSGDIAYYDNDGHFYIVDRLKSLIKYKGYQVAPAEIEGILLQHPYIVDAGVTGIPDEAAGELPAAGVVVQTGKYLNEQIVQDYVASQVSTAKWLRGGVKFLDEIPKGSTGKIDRKVLRQMLEKHTNGHHHHHHHH
As to B1, the “Luminescence (RLU) BrightGlo” value stood at 3760160 RLU, the “Normalized Luminescence BrightGlo” value stood at 0.97, the “Luminescence (RLU) CellTiterGlo” value came out at 778990 RLU and the “Normalized Luminescence CellTiterGlo” value amounted to 1.21. Also, the “Luminescence (RLU) Detection Reagent” value is reported as 6098750 RLU and the “Normalized Luminescence Detection Reagent” value stood at 1.18.

B2: C2160C1: SEQ ID NO: 51; H244W+T344A+I396K+S193A+N228D+L305F+S306P+I109V+K121Q+F246Y+V261A (protein)
chain: MADKNILYGPEPFYPLEDGTAGEQMFDALSRYAAIPGCIALTNAHTKENVLYEEFLKLSCRLAESFKKYGLKQNDTIAVCSENSLQFFLPVIASLYLGIIVAPVNDKYVERELIHSLGIVQPRIVFCSKNTFQKVLNVKSKLKSIETIIILDLNEDLGGYQCLNNFISQNSDSNLDVKKFKPYSFNRDDQVAAIMFSSGTTGLPKGVMLTHKNIVARFSIAKDPTFGDAINPTSAILTVIPFHWGYGMMTTLGYFTCGFRAVLMHTFEEKLFLQSLQDYKVESTLLVPTLMAFLAKSALVEKYDFPHLKEIASGGAPLSKEIGEMVKKRFKLNFVRQGYGLTEATSAVLITPKGDAKPGSTGKIVPLHAVKVVDPTTGKILGPNEPGELYFKGPMKMKGYYNNEEATKAIIDNDGWLRSGDIAYYDNDGHFYIVDRLKSLIKYKGYQVAPAEIEGILLQHPYIVDAGVTGIPDEAAGELPAAGVVVQTGKYLNEQIVQDYVASQVSTAKWLRGGVKFLDEIPKGSTGKIDRKVLRQMLEKHTNGHHHHHHHH
Take B2: the “Luminescence (RLU) BrightGlo” value is given as 4459170 RLU, the “Normalized Luminescence BrightGlo” value amounted to 1.15, the “Luminescence (RLU) CellTiterGlo” value was determined as 450262 RLU and the “Normalized Luminescence CellTiterGlo” value turned out to be 0.70. Moreover, the “Luminescence (RLU) Detection Reagent” value is 5002710 RLU and the “Normalized Luminescence Detection Reagent” value was 0.97.

B3: C2262C2: SEQ ID NO: 47; H244W+T344A+I396K+S193A+N228D+L305F+S306P+I109V+Y183C+V261A+T289S (protein)
chain: MADKNILYGPEPFYPLEDGTAGEQMFDALSRYAAIPGCIALTNAHTKENVLYEEFLKLSCRLAESFKKYGLKQNDTIAVCSENSLQFFLPVIASLYLGIIVAPVNDKYVERELIHSLGIVKPRIVFCSKNTFQKVLNVKSKLKSIETIIILDLNEDLGGYQCLNNFISQNSDSNLDVKKFKPCSFNRDDQVAAIMFSSGTTGLPKGVMLTHKNIVARFSIAKDPTFGDAINPTSAILTVIPFHWGFGMMTTLGYFTCGFRAVLMHTFEEKLFLQSLQDYKVESTLLVPSLMAFLAKSALVEKYDFPHLKEIASGGAPLSKEIGEMVKKRFKLNFVRQGYGLTEATSAVLITPKGDAKPGSTGKIVPLHAVKVVDPTTGKILGPNEPGELYFKGPMKMKGYYNNEEATKAIIDNDGWLRSGDIAYYDNDGHFYIVDRLKSLIKYKGYQVAPAEIEGILLQHPYIVDAGVTGIPDEAAGELPAAGVVVQTGKYLNEQIVQDYVASQVSTAKWLRGGVKFLDEIPKGSTGKIDRKVLRQMLEKHTNGHHHHHHHH
Regarding B3, the “Luminescence (RLU) BrightGlo” value was found to be 3874490 RLU, the “Normalized Luminescence BrightGlo” value is reported as 1.00, the “Luminescence (RLU) CellTiterGlo” value came to 738328 RLU and the “Normalized Luminescence CellTiterGlo” value was determined as 1.15. For the same molecule, the “Luminescence (RLU) Detection Reagent” value is 5661740 RLU and the “Normalized Luminescence Detection Reagent” value is given as 1.10.

B4: C2261E4: SEQ ID NO: 50; H244W+T344A+I396K+S193A+N228D+L305F+S306P+I109V+I230F (protein)
chain: MADKNILYGPEPFYPLEDGTAGEQMFDALSRYAAIPGCIALTNAHTKENVLYEEFLKLSCRLAESFKKYGLKQNDTIAVCSENSLQFFLPVIASLYLGIIVAPVNDKYVERELIHSLGIVKPRIVFCSKNTFQKVLNVKSKLKSIETIIILDLNEDLGGYQCLNNFISQNSDSNLDVKKFKPYSFNRDDQVAAIMFSSGTTGLPKGVMLTHKNIVARFSIAKDPTFGDAFNPTSAILTVIPFHWGFGMMTTLGYFTCGFRVVLMHTFEEKLFLQSLQDYKVESTLLVPTLMAFLAKSALVEKYDFPHLKEIASGGAPLSKEIGEMVKKRFKLNFVRQGYGLTEATSAVLITPKGDAKPGSTGKIVPLHAVKVVDPTTGKILGPNEPGELYFKGPMKMKGYYNNEEATKAIIDNDGWLRSGDIAYYDNDGHFYIVDRLKSLIKYKGYQVAPAEIEGILLQHPYIVDAGVTGIPDEAAGELPAAGVVVQTGKYLNEQIVQDYVASQVSTAKWLRGGVKFLDEIPKGSTGKIDRKVLRQMLEKHTNGHHHHHHHH
B4: the “Luminescence (RLU) BrightGlo” value is reported as 3249560 RLU, the “Normalized Luminescence BrightGlo” value is given as 0.84, the “Luminescence (RLU) CellTiterGlo” value is recorded as 710098 RLU and the “Normalized Luminescence CellTiterGlo” value was found to be 1.10. Also, the “Luminescence (RLU) Detection Reagent” value was 5375380 RLU and the “Normalized Luminescence Detection Reagent” value turned out to be 1.04.

B5: C2149A12: SEQ ID NO: 49; H244W+T344A+I396K+S193A+N228D+L305F+S306P+I109V+F246Y+V261A (protein)
chain: MADKNILYGPEPFYPLEDGTAGEQMFDALSRYAAIPGCIALTNAHTKENVLYEEFLKLSCRLAESFKKYGLKQNDTIAVCSENSLQFFLPVIASLYLGIIVAPVNDKYVERELIHSLGIVKPRIVFCSKNTFQKVLNVKSKLKSIETIIILDLNEDLGGYQCLNNFISQNSDSNLDVKKFKPYSFNRDDQVAAIMFSSGTTGLPKGVMLTHKNIVARFSIAKDPTFGDAINPTSAILTVIPFHWGYGMMTTLGYFTCGFRAVLMHTFEEKLFLQSLQDYKVESTLLVPTLMAFLAKSALVEKYDFPHLKEIASGGAPLSKEIGEMVKKRFKLNFVRQGYGLTEATSAVLITPKGDAKPGSTGKIVPLHAVKVVDPTTGKILGPNEPGELYFKGPMKMKGYYNNEEATKAIIDNDGWLRSGDIAYYDNDGHFYIVDRLKSLIKYKGYQVAPAEIEGILLQHPYIVDAGVTGIPDEAAGELPAAGVVVQTGKYLNEQIVQDYVASQVSTAKWLRGGVKFLDEIPKGSTGKIDRKVLRQMLEKHTNGHHHHHHHH
Consider B5, for which the “Luminescence (RLU) BrightGlo” value was found to be 4701610 RLU, the “Normalized Luminescence BrightGlo” value was determined as 1.21, the “Luminescence (RLU) CellTiterGlo” value was determined as 479613 RLU and the “Normalized Luminescence CellTiterGlo” value is 0.74. Also, the “Luminescence (RLU) Detection Reagent” value is 5480500 RLU and the “Normalized Luminescence Detection Reagent” value is on record as 1.06.

B6: C2158H3: SEQ ID NO: 46; H244W+T344A+I396K+S193A+N228D+L305F+S306P+I109V+N154S+V261A+I410M (protein)
chain: MADKNILYGPEPFYPLEDGTAGEQMFDALSRYAAIPGCIALTNAHTKENVLYEEFLKLSCRLAESFKKYGLKQNDTIAVCSENSLQFFLPVIASLYLGIIVAPVNDKYVERELIHSLGIVKPRIVFCSKNTFQKVLNVKSKLKSIETIIILDLSEDLGGYQCLNNFISQNSDSNLDVKKFKPYSFNRDDQVAAIMFSSGTTGLPKGVMLTHKNIVARFSIAKDPTFGDAINPTSAILTVIPFHWGFGMMTTLGYFTCGFRAVLMHTFEEKLFLQSLQDYKVESTLLVPTLMAFLAKSALVEKYDFPHLKEIASGGAPLSKEIGEMVKKRFKLNFVRQGYGLTEATSAVLITPKGDAKPGSTGKIVPLHAVKVVDPTTGKILGPNEPGELYFKGPMKMKGYYNNEEATKAMIDNDGWLRSGDIAYYDNDGHFYIVDRLKSLIKYKGYQVAPAEIEGILLQHPYIVDAGVTGIPDEAAGELPAAGVVVQTGKYLNEQIVQDYVASQVSTAKWLRGGVKFLDEIPKGSTGKIDRKVLRQMLEKHTNGHHHHHHHH
In the case of B6, the “Luminescence (RLU) BrightGlo” value turned out to be 3892740 RLU, the “Normalized Luminescence BrightGlo” value was 1.00, the “Luminescence (RLU) CellTiterGlo” value is given as 648483 RLU and the “Normalized Luminescence CellTiterGlo” value is given as 1.01. In addition, the “Luminescence (RLU) Detection Reagent” value worked out at 5916440 RLU and the “Normalized Luminescence Detection Reagent” value is 1.15.

B7: C2159F8: SEQ ID NO: 48; H244W+T344A+I396K+S193A+N228D+L305F+S306P+I109V+Y32C (protein)
chain: MADKNILYGPEPFYPLEDGTAGEQMFDALSRCAAIPGCIALTNAHTKENVLYEEFLKLSCRLAESFKKYGLKQNDTIAVCSENSLQFFLPVIASLYLGIIVAPVNDKYVERELIHSLGIVKPRIVFCSKNTFQKVLNVKSKLKSIETIIILDLNEDLGGYQCLNNFISQNSDSNLDVKKFKPYSFNRDDQVAAIMFSSGTTGLPKGVMLTHKNIVARFSIAKDPTFGDAINPTSAILTVIPFHWGFGMMTTLGYFTCGFRVVLMHTFEEKLFLQSLQDYKVESTLLVPTLMAFLAKSALVEKYDFPHLKEIASGGAPLSKEIGEMVKKRFKLNFVRQGYGLTEATSAVLITPKGDAKPGSTGKIVPLHAVKVVDPTTGKILGPNEPGELYFKGPMKMKGYYNNEEATKAIIDNDGWLRSGDIAYYDNDGHFYIVDRLKSLIKYKGYQVAPAEIEGILLQHPYIVDAGVTGIPDEAAGELPAAGVVVQTGKYLNEQIVQDYVASQVSTAKWLRGGVKFLDEIPKGSTGKIDRKVLRQMLEKHTNGHHHHHHHH
As for B7, the “Luminescence (RLU) BrightGlo” value is 4599710 RLU, the “Normalized Luminescence BrightGlo” value was determined as 1.18, the “Luminescence (RLU) CellTiterGlo” value is recorded as 650068 RLU and the “Normalized Luminescence CellTiterGlo” value is 1.01. The “Luminescence (RLU) Detection Reagent” value was found to be 5611680 RLU and the “Normalized Luminescence Detection Reagent” value worked out at 1.09.
